This is an account of results in US9636415B2, “Bispecific molecule binding TLR9 and CD32 and comprising a T cell epitope for treatment of allergies” (S-TARget therapeutics GmbH, priority 2006, dated 2017).

One data set has as its system pDCS in PBMC. Description: IL-6 and TNFα production after stimulation with CpG targeted to CD32 by aCD32a peptide (Example 10). It is filed as cell-based, human. As to conditions: CpG without targeting. How it is done: Buffy coats were obtained from the Red Cross Austria. Cells were separated on ficoll hypack.
Freshly isolated PBMC's were incubated with 200 μg/ml aCD32a peptide published by Berntzen et al (J. Biol. Chem. (2009) 284:1126-1135; sequence ADGAWAWVWLTETAVGAAK-biotin, SEQ ID NO:68) in PBA (PBS containing 5% BSA) on ice for 30 minutes and washed twice with PBA, followed by an incubation with 10 μg/ml streptavidin in PBA on ice for 30 minutes and two times washing with PBA. Subsequently, PBMC's were incubated on ice for 15 minutes with either PBA, 5 μg/ml ODN-CpG C (M362, Axorra) in PBA or 5 μg/ml ODN-CpG C-3′-biotin in PBA (M362, Girindus). Unbound ODN-CpG C was washed away three time with PBA and PBMCs were cultured overnight (37° C., 5% CO2) in X-VIVO-15 medium (Cambrex), supplemented with 2% of decomplemented human AB+ serum. Supernatants were collected from PBMC cultures after overnight stimulation, and […] was analyzed with murine monoclonal capture and HRP-conjugated anti-IL-6 or TNF^L antibodies (BenderMed systems) using standard ELISA procedures.

The test system of a further data set is human pDCs. Description: IFNα production of pDCs after stimulation with CpG targeted to CD32, AT10 or ScFV from IV.3 (Example 9). It counts as cell-based. As to conditions: CpG without targeting; p<0.04 resp. p<0.02.
In a further data set the test system is PBMC. As to the kind of experiment: IFN and IL-4 ELISA in pooled PBMC culture supernatants after immunization with SG100. It counts as in vivo, rhesus monkey. The note with it: positive control, data not shown; PBMC of SG100-immunized animals. The procedure: 5 healthy house dust mite (HDM) naïve rhesus monkeys were immunized 3× with SG100 (100 μg/shot) absorbed on Alum) on d0, d14 and d28. Blood samples were taken on d0 and d49 for T cell activation and antibody production.
Proliferation: PBMC ([…]) were cultured for 4 days (37° C./5% CO2/99% humidity) in 8 plex with medium, warhead (2 μg/ml), Immunogen (2 μg/ml), Der p1 (2 μg/ml), Der p2 (2 μg/ml), Der p5 (2 μg/ml) and Der p7 (2 μg/ml). As positive control Con A (Concanavaline A, Sigma) was used. Proliferation was measured by [3H]-thymidine (0.5 μCi/well) during the final 18 hrs of a 4 day culture. Cells were harvested for β-scintillation counting (Topcount NXT, Packerd, Ramsey, Minn., USA). Net counts per minutes were calculated by subtracting the counts of the medium control from the counts induced by the different antigens.
From each well of the 8plex stimulations of the proliferation experiment, 50 μl supernatant was taken after 24 h and pooled. The pooled supernatants were tested for the presence of IFN and IL-4 using commercially available ELISA kits from U-Cytech, Utrecht The Netherlands).

For a further data set, the system named is mice. As to the kind of experiment: IgG1 and IgG2a ELISA after s.c. immunization of mice with ScFV-1-coil or warhead. It is filed as in vivo, mouse. The note with it: day 28, s.c. 2x 35 μg d0, d14. The procedure:
24 mice (6/group) were immunized s.c. 2× with 35 μg in 150 μl ScFV-1-coil or with warhead (ScFV-1-coil-M362) either formulated on Alum or diluted in PBS. Immunizations were done on d0, and d14, sera were taken on d0 (before immunization) and d28 and analyzed for IgG1 and IgG2a against ScFV-1-coil (indicated as ScFV) and mAb IV.3 by standard ELISA.
In general terms: In an ELISA, binding on a coated surface is turned into a signal by an enzyme label.

[1] abbreviates: independent of the presence of Alum.

Procedure for human pDCs: Buffy coats were obtained from healthy volunteers according to institutional guidelines and pDCs were purified by positive isolation using anti-BDCA-4-conjugated magnetic microbeads (Miltenyi Biotec) and cultured in X-VIVO-15 medium (Cambrex) supplemented with 2% of decomplemented human AB+ serum. pDCs purity was routinely up to 95%, as assessed by double staining BDCA-2/CD123 (Miltenyi Biotec) in a FACS.
Subsequently, pDCs were incubated on ice for 15 minutes with either PBA, 5 μg/ml ODN-CpG C (M362, Axorra) in PBA or 5 μg/ml ODN-CpG C-3′-biotin in PBA (M362, Biosearch Technologies). Unbound ODN-CpG C was washed away three time with PBA and pDCs were cultured overnight (37° C., 5% CO2) in X-VIVO-15 medium (Cambrex), supplemented with 2% of decomplemented human AB+ serum. Supernatants were collected from pDC cultures after overnight stimulation, and IFNα production was analyzed with murine monoclonal capture and HRP-conjugated anti-IFNα antibodies (BenderMed systems) using standard ELISA procedures.

For the molecule “TCGTCGTCGTTCGAACGACGTTGAT (chemistry not fully specified) [CpG standard, CpG class C oligodeoxynucleotide, TLR9 agonist, used without targeting]”, in the data set with pDCS in PBMC, the “IL-6 production: times less potent than CpG targeted to CD32” value was roughly 75 times. Besides, in the data set on human pDCs, the “potency of IFNα induction compared to CpG targeted to CD32” value is listed as “significantly less potent”.

As to Concanavaline A [Con A], the “IL-4 after stimulation with Con A” value with PBMC is “IL-4 was seen”.

B1: warhead (conjugate)
scFv: EVQLQQSGPELKKPGETVKISCKASGYTFTNYGMNWVKQAPGKGLKWMGWLNTYTGESIYPDDFKGRFAFSSETSASTAYLQINNLKNEDMATYFCARGDYGYDDPLDYWGQGTSVTVSSGGGGSGGGGSGGGGSDIVMTQAAPSVPVTPGESVSISCRSSKSLLHTNGNTYLHWFLQRPGQSPQLLIYRMSVLASGVPDRFSGSGSGTAFTLSISRVEAEDVGVFYCMQHLEYPLTFGAGTKLELKGSISAWSHPQFEKGPEVSALEKEVSALEKEVSALEKEVSALEKEVSALEK
Take B1: in the data set with mice (setting [1]), the “IgG1 response to ScFV-1-coil” value is listed as “strong”, the “IgG1 response to mAb IV.3” value is reported as “strong”, the “IgG2 response to ScFV-1-coil” value is “strong” and the “IgG2 response to mAb IV.3” value is recorded as “strong”.

B2: ScFV-1-coil: ScFV derived from mAb IV.3 with pepE coil plus StrepTag II (SEQ ID 93) (protein)
scFv: B1 scFv
modifications: ScFV
Turning to B2, the IgG2a response result in the data set with mice (on Alum or in PBS) is “no IgG2a response was induced”. Besides, the “IgG1 response against ScFV-1-coil” value in the data set on mice (only in the presence of Alum) is on record as “induced an IgG1 response”.
